For three substances, fold stimulation of the apparent ATPase rate of UAP56 with RNA and ATP (NADH-coupled assay) and fold reduction of affinity against UAP56 results are on record in publication PMC13391367.

Experiment [1] deals with UAP56 (10×His–3C–UAP56) (UniProt Q13838).
Experiment [2] concerns the target LENG8–PS^M (10×His–MBP–LENG8^491–800, 3×V5–PCID2, SEM1) (human) (UniProt Q96PV6). Put plainly: grating-coupled interferometry; V5-tagged LENG8–PS^M or SAC3D1–PS^M captured on an amine-coupled anti-V5 antibody (Creoptix WAVE, 4PCP chip); UAP56 injected as a 1:2 dilution series from 5 µM, with or without 200 µM 15U RNA, 25 mM HEPES pH 7.9, 50 mM KCl, 1 mM MgCl2, 1 mM TCEP, with and without 1 mM ATP, 25 °C; one-to-one model.

Experiment [3] has as its target SAC3D1–PS^M (10×His–MBP–SAC3D1^48–404, 3×V5–PCID2, SEM1) (human) (UniProt A6NKF1). Described as above.

Chain of UAP56 (10×His–3C–UAP56) (Q13838 whole entry): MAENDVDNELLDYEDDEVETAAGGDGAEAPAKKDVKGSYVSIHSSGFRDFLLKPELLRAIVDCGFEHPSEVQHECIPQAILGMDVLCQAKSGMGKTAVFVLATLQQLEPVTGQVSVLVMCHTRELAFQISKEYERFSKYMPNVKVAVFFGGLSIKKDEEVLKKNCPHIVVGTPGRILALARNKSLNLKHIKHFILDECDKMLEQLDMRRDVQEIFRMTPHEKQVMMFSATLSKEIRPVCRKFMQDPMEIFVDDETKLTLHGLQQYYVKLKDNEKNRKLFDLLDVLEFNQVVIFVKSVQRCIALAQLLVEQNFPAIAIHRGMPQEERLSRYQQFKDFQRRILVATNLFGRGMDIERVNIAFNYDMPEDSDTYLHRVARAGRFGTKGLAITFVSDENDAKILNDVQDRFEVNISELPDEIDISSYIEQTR
Chain of UAP56(Δ1–43) (10×His–3C–UAP56(Δ1–43), residues 44–428) (Q13838 44-428, stated change not applied): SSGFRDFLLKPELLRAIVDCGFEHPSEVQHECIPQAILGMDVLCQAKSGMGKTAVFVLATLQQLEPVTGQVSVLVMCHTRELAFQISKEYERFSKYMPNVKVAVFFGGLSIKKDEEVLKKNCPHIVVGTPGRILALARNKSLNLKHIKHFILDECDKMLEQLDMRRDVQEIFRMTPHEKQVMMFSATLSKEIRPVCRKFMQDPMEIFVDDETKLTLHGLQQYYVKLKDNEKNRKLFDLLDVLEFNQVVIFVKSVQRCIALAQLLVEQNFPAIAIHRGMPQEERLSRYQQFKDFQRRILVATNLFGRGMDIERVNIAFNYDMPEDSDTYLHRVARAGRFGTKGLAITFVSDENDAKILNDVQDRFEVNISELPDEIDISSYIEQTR

In the case of “SAC3D1–PS^M (10×His–MBP–SAC3D1^48–404, 3×V5–PCID2, SEM1) (from UniProt A6NKF1 48-404; Q5JVF3 1-399; P60896 1-70) (complex)”, the fold stimulation of the apparent ATPase rate of UAP56 with RNA and ATP (NADH-coupled assay) in experiment [1] worked out at 60 fold. Take “UAP56(Δ1–43) (10×His–3C–UAP56(Δ1–43), residues 44–428) (from UniProt Q13838 44-428) (domain or fragment)”: the fold reduction of affinity against UAP56 in experiment [2] and in experiment [3] was > 30 fold throughout. As for “LENG8–PS^M (10×His–MBP–LENG8^491–800, 3×V5–PCID2, SEM1) (from UniProt Q96PV6 491-800; Q5JVF3 1-399; P60896 1-70) (complex)”, the fold stimulation of the apparent ATPase rate of UAP56 with RNA and ATP (NADH-coupled assay) in experiment [1] was 290 fold.
